The supplement of paper PMC7877785
± gives the uncertainty stated by the source.

Test: self-splicing fitness, log relative to wild type (ln ratio); higher = more splicing; Tetrahymena group I intron in knt gene, E. coli kanamycin selection, DiMSum; sequences stand for … in CUCUCU…GGAGGGAAAAGUUAUCAGGCAUGCACCUGGUAGCUAGUCUUUAAACCAAUAGAUUGCAUCGGUUUAAAAGGCAAGACCGUCAAAUUGCGGGAAAGGGGUCAACAGCCGUUCAGUACCAAGUCUCAGGGGAAACUUUGAGAUGGCCUUGCAAAGGGUAUGGUAAUAAGCUGACGGACAUGGUCCUAACCACGCAGCCAAGUCCUAAGUCAACAGAUCUUCUGUUGAUAUGGAUGCAGUUCACAGACUAAAUGUCGGUCGGGGAAGAUGUAUUCUUCUCAUAAGAUAUAGUCGGACCUCUCCUUAAUGGGAGCUAGCGGAUGAAGUGAUGCAACACUGGAGCCGCUGGGAACUAAUUUGUAUGCGAAAGUAUAUUGAUUAGUUUUGGAGUACUCGUGGUCG
Method in brief: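 The eight P1ex-region nucleotides of an intron in the knt kanamycin-resistance gene on pET-22b(+) were all randomised and the library put into E. coli BL21(DE3). Six replicate transformations were grown overnight at 37°C or 30°C on LB agar with or without 25 μg/mL kanamycin, together with 100 μg/mL carbenicillin, 50 μM IPTG and 0.2% rhamnose. Colonies were pooled and amplicon-sequenced on an Illumina HiSeq 2500. Fitness from DiMSum is the error-weighted combination of wild-type-normalised replicate fold changes, kanamycin over none.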

Row | Sequence | self-splicing fitness (ln) (30 °C) | self-splicing fitness (ln) (37 °C)
1 | GGGAAGCAAUAUUACGUACA | -1.02 ± 0.14 | -0.334 ± 0.24
2 | GGGAAGCAAUAUUACGUAUA | -2.79 ± 0.15 | -0.738 ± 0.094
3 | GGGAAGCAAUAUUACGUCAC | -3.08 ± 0.2 | -1.77 ± 0.19
4 | GGGAAGCAAUAUUACGUGGA | -2 ± 0.17 | -2.34 ± 0.29
5 | GGGAAGCAAUAUUACGUGGU | -4.31 ± 0.27 | -3.33 ± 0.47
6 | GGGCAGCAAUAUUACGAAAC | -0.715 ± 0.3 | -0.594 ± 0.28
7 | GGGCAGCAAUAUUACGAACU | -0.431 ± 0.065 | -0.278 ± 0.09
8 | GGGCAGCAAUAUUACGACCA | -0.297 ± 0.28 | 0.951 ± 0.41
9 | GGGCAGCAAUAUUACGAGAA | -3.05 ± 0.47 | -1.87 ± 0.3
10 | GGGCAGCAAUAUUACGAGCG | -0.755 ± 0.1 | 0.344 ± 0.12
11 | GGGCAGCAAUAUUACGAGCU | -2.69 ± 0.22 | 0.481 ± 0.13
12 | GGGCAGCAAUAUUACGAUGA | -1.36 ± 0.12 | -0.649 ± 0.11
13 | GGGCAGCAAUAUUACGCAUA | -1 ± 0.092 | 0.38 ± 0.13
14 | GGGCAGCAAUAUUACGCCGC | -3.33 ± 0.22 | -2.27 ± 0.31
15 | GGGCAGCAAUAUUACGCUAG | -1.86 ± 0.078 | -0.741 ± 0.11
16 | GGGCAGCAAUAUUACGGAGA | -4.44 ± 0.46 | -2.56 ± 0.22
17 | GGGCAGCAAUAUUACGGAUU | -0.98 ± 0.12 | -0.0797 ± 0.1
18 | GGGCAGCAAUAUUACGGCGC | -0.77 ± 0.11 | 0.0143 ± 0.14
19 | GGGCAGCAAUAUUACGGGGA | -2.97 ± 0.21 | -1.56 ± 0.17
20 | GGGCAGCAAUAUUACGGUAC | -1.73 ± 0.097 | -0.144 ± 0.1
21 | GGGCAGCAAUAUUACGGUGC | -2.21 ± 0.13 | -1.8 ± 0.089
22 | GGGCAGCAAUAUUACGUAGU | -0.605 ± 0.086 | -0.727 ± 0.11
23 | GGGCAGCAAUAUUACGUAUG | -3.15 ± 0.23 | -1.44 ± 0.22
24 | GGGCAGCAAUAUUACGUAUU | -0.944 ± 0.061 | 0.0363 ± 0.074
25 | GGGCAGCAAUAUUACGUUGU | -2.7 ± 0.16 | -2.77 ± 0.19
26 | GGGCAGCAAUAUUACGUUUC | -2.2 ± 0.094 | -0.672 ± 0.098

Row | Sequence | self-splicing fitness (ln) (30 °C) | self-splicing fitness (ln) (37 °C)
27 | GGGGAGCAAUAUUACGACAG | -3.9 ± 0.39 | -2.33 ± 0.39
28 | GGGGAGCAAUAUUACGACGC | -0.34 ± 0.15 | 0.117 ± 0.2
29 | GGGGAGCAAUAUUACGAGGG | -2.13 ± 0.19 | –
30 | GGGGAGCAAUAUUACGAUGC | -1.06 ± 0.42 | –
31 | GGGGAGCAAUAUUACGCACA | -2.37 ± 0.43 | -0.994 ± 0.34
32 | GGGGAGCAAUAUUACGCUAG | -2.63 ± 0.27 | –
33 | GGGGAGCAAUAUUACGCUCA | -1.05 ± 0.15 | -0.61 ± 0.21
34 | GGGGAGCAAUAUUACGCUUC | -3.28 ± 0.4 | -2.12 ± 0.49
35 | GGGGAGCAAUAUUACGGCUG | -2.72 ± 0.15 | -1.09 ± 0.22
36 | GGGGAGCAAUAUUACGUACU | -1.58 ± 0.17 | -0.886 ± 0.16
37 | GGGGAGCAAUAUUACGUCCG | -0.963 ± 0.13 | -0.326 ± 0.2
38 | GGGGAGCAAUAUUACGUCUG | -2.55 ± 0.37 | -1.24 ± 0.24
39 | GGGUAGCAAUAUUACGAAAC | -1.26 ± 0.32 | -0.11 ± 0.4
40 | GGGUAGCAAUAUUACGAAGU | -1.74 ± 0.23 | -1.57 ± 0.24
41 | GGGUAGCAAUAUUACGAUCA | -0.0146 ± 0.13 | 0.0752 ± 0.16
42 | GGGUAGCAAUAUUACGCAGA | -2.97 ± 0.28 | -1.93 ± 0.26
43 | GGGUAGCAAUAUUACGCCUG | -1.42 ± 0.12 | -0.219 ± 0.14
44 | GGGUAGCAAUAUUACGCUAA | -1.32 ± 0.29 | -0.0326 ± 0.25
45 | GGGUAGCAAUAUUACGCUUU | -0.389 ± 0.11 | -0.688 ± 0.12
46 | GGGUAGCAAUAUUACGGAAC | -0.98 ± 0.11 | -1.49 ± 0.19
47 | GGGUAGCAAUAUUACGGAGA | -4.31 ± 0.3 | -3.19 ± 0.23
48 | GGGUAGCAAUAUUACGGGAG | -2.54 ± 0.28 | -1.44 ± 0.25
49 | GGGUAGCAAUAUUACGGUCG | -0.207 ± 0.12 | -0.642 ± 0.096
50 | GGGUAGCAAUAUUACGUAUC | -1.3 ± 0.21 | -0.963 ± 0.24
51 | GGGUAGCAAUAUUACGUAUU | -0.286 ± 0.07 | -1.06 ± 0.11
52 | GGGUAGCAAUAUUACGUGAA | -1.36 ± 0.13 | -0.147 ± 0.16

Row | Sequence | self-splicing fitness (ln) (30 °C) | self-splicing fitness (ln) (37 °C)
53 | GGGUAGCAAUAUUACGUGUG | -1.65 ± 0.11 | -1.24 ± 0.12
54 | GGGUAGCAAUAUUACGUUAA | -1.72 ± 0.16 | -0.668 ± 0.13
55 | GGGUAGCAAUAUUACGUUAG | – | -1.78 ± 0.43
56 | GGUAAGCAAUAUUACGACCC | -1.6 ± 0.26 | -1.75 ± 0.43
57 | GGUAAGCAAUAUUACGAGAU | -2.94 ± 0.25 | -1.2 ± 0.16
58 | GGUAAGCAAUAUUACGAGUG | -2 ± 0.16 | -3.17 ± 0.13
59 | GGUAAGCAAUAUUACGAUAA | -1.43 ± 0.092 | -0.994 ± 0.13
60 | GGUAAGCAAUAUUACGCAGC | -0.901 ± 0.24 | -1.19 ± 0.23
61 | GGUAAGCAAUAUUACGCCGG | -3.09 ± 0.47 | -1.93 ± 0.47
62 | GGUAAGCAAUAUUACGCGAU | -2.17 ± 0.3 | –
63 | GGUAAGCAAUAUUACGCUUU | -1.88 ± 0.24 | -2.02 ± 0.33
64 | GGUAAGCAAUAUUACGGAUC | 0.0183 ± 0.15 | 0.125 ± 0.21
65 | GGUAAGCAAUAUUACGGCCA | -1.91 ± 0.39 | –
66 | GGUAAGCAAUAUUACGGGCU | -1.76 ± 0.13 | -0.874 ± 0.12
67 | GGUAAGCAAUAUUACGGUAC | -1.32 ± 0.08 | -0.815 ± 0.13
68 | GGUAAGCAAUAUUACGGUGA | -1.45 ± 0.12 | -0.756 ± 0.13
69 | GGUAAGCAAUAUUACGGUGG | -2.82 ± 0.12 | -3.18 ± 0.24
70 | GGUAAGCAAUAUUACGUCAU | -0.725 ± 0.14 | 0.713 ± 0.2
71 | GGUAAGCAAUAUUACGUCCA | -0.363 ± 0.14 | -0.817 ± 0.16
72 | GGUAAGCAAUAUUACGUCCG | -0.859 ± 0.11 | -0.41 ± 0.15
73 | GGUAAGCAAUAUUACGUGUU | -1.4 ± 0.075 | -0.901 ± 0.083
74 | GGUAAGCAAUAUUACGUUAU | -2.4 ± 0.17 | -2.3 ± 0.24
75 | GGUAAGCAAUAUUACGUUCU | -1.44 ± 0.12 | -0.359 ± 0.12
76 | GGUAAGCAAUAUUACGUUGG | -2.59 ± 0.38 | -1.99 ± 0.39
77 | GGUAAGCAAUAUUACGUUGU | -3.1 ± 0.26 | -1.61 ± 0.36
78 | GGUCAGCAAUAUUACGACGG | -0.435 ± 0.14 | -0.175 ± 0.16
